Values of other authors in article PMC9249222.

Assays:
PAIP PAM2 (Homo sapiens) = PAIP PAM2 (Homo sapiens) (UniProt Q9H074)
[1] = biological target: UBR5 HECT PAM2L (Homo sapiens) (UniProt O95071)

Chain of UBR5 MLLE (O95071 2377-2454): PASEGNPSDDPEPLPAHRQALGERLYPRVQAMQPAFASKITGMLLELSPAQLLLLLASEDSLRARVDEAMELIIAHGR
Chain of PAIP PAM2 (Homo sapiens) (Q9H074 116-143): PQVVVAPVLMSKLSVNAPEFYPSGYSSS

Substance: UBR5 MLLE (from UniProt O95071)
- Kd (PAIP PAM2 (Homo sapiens)): 3.4 µM
- Kd [1]: 50 µM
